Our source for the binding signal (% displaced by antibody), Kd and binding signal (% of cells releasing aptamer) values is PMC6468627.

The target of data set [1] is T1, EpCAM (native, on primary lung cancer cells) (Homo sapiens (patient NSCLC tumor cells)) (UniProt P16422).
T1 sequence: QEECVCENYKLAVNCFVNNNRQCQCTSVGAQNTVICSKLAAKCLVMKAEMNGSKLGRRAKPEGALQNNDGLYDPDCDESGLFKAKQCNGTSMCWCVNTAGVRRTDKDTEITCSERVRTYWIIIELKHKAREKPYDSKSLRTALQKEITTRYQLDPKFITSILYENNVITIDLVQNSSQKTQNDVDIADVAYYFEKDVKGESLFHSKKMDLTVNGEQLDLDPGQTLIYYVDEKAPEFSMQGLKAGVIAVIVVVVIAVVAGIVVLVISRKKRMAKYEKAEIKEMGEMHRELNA
In words: competition (flow cytometry). To be noted: DPBS, 25 °C, 30 min; cells (3×10^5) pre-incubated with 1 ng/uL salmon sperm DNA; DNA pools/library heated to 95 °C 5 min then on ice 10 min; pH not stated. (In general: A flow cytometer gives signals particle by particle.)

Data set [2] addresses T1, EpCAM (native, on primary lung cancer cells) (Homo sapiens (patient NSCLC tumor cells)). The experiment in a line: flow cytometry (cell binding). Particulars: apparent Kd on whole primary lung cancer cells; 1-300 nM aptamer; DPBS, 25 °C, 30 min; cells (3×10^5) pre-incubated with 1 ng/uL salmon sperm DNA; DNA pools/library heated to 95 °C 5 min then on ice 10 min; pH not stated.

With “CTCCTCTGACTGTAACCACGACACGCACAAATGTCAGTGTACCGCACTCGCACATTCTTAGCATAGGTAGTCCAGAAGCC [EPCAM-APT-01 (ECM_01)]”, the binding signal (% displaced by antibody) in data set [1] amounted to 15. Besides, the Kd in data set [2] stood at 0.025 µM.

For “CTCCTCTGACTGTAACCACGGTGCGCGTACCACCATGTGTACACACTGCATGTTTGGTTAGCATAGGTAGTCCAGAAGCC [EPCAM-APT-02 (ECM_02)]”, the binding signal (% of cells releasing aptamer) in data set [1] was 18. For the same sequence, in data set [2], the Kd was 0.015 µM.
